We go through one substance from publication PMC7473855.

This experiment deals with SARS-CoV-2 prefusion-stabilized spike ectodomain with a C-terminal T4 fibritin trimerization motif (SARS-CoV-2) (UniProt P0DTC2). Kind of experiment: cryo-EM structure.

Sequence of Ty1 nanobody (VHH) (VHH): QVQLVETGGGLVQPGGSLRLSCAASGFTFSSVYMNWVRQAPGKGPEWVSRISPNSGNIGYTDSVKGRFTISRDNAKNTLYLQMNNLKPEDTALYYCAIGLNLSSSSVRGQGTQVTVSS

The substance Ty1 nanobody (VHH) displayed a stoichiometry N (Ty1 per spike trimer) of 3.
